Measurements: paper PMC10085707

What was measured:
[1] = molecular target: SpRadA K101A point mutant (Streptococcus pneumoniae) (UniProt Q8DRP0); assay: negative-stain electron microscopy
[2] = molecular target: SpRadA helicase (Streptococcus pneumoniae RadA), full length (Streptococcus pneumoniae) (UniProt Q8DRP0); assay: negative-stain electron microscopy
[3] = molecular target: SpRecA (Streptococcus pneumoniae, UniProt P0A452 1-388); assay: fluorescence anisotropy

## SpRadA K101A point mutant (from UniProt Q8DRP0 1-420) (enzyme)
[1]
  stoichiometry N: 6

## SpRadA helicase (Streptococcus pneumoniae RadA), full length (from UniProt Q8DRP0 1-420) (enzyme)
[2]
  stoichiometry N: 6

B1: T65 (polydT 65-mer) (ssDNA)
DNA: TTTTTTTTTTTTTTTTTTTTTTTTTTTTTTTTTTTTTTTTTTTTTTTTTTTTTTTTTTTTTTTTT
[3]
  binding result: binds
